Assay results as given in PMC3662644, “Genome wide analysis of the complete GlnR nitrogen-response regulon in Mycobacterium smegmatis”.
Where a chain is given by its changes, count along the chain named.

B1: Peak 24 GG (dsDNA)
DNA 1: TCATGTCGAGGTTAGGTTGTTCGTCGGACACAGACATT
DNA 2: AATGTCTGTGTCCGACGAACAACCTAACCTCGACATGA
B2: Peak 24 G (dsDNA)
DNA 1: B1 DNA 1 with G16T, G27C
DNA 2: B1 DNA 2 with C12G, C23A
B3: Peak 2 GG (dsDNA)
DNA 1: GCAATCGCGGGGTAGGGCCGTGGAAGGAGAGCCTGCCT
DNA 2: AGGCAGGCTCTCCTTCCACGGCCCTACCCCGCGATTGC
B4: Peak 2 G (dsDNA)
DNA 1: B3 DNA 1 with G16C, G27C
DNA 2: B3 DNA 2 with C12G, C23G

How the values were obtained:
[1] = target: T1, His-GlnR (Mycobacterium smegmatis (mc2 155?)) (UniProt A0R4C4); assay: EMSA; conditions: EMSA: 0.4 ng DIG-labelled DNA, 0-0.9 ug His-GlnR, 0.5 ug poly d(A-T), 25 mM Hepes pH 7.9, 150 mM NaCl, 2.5 mM MgCl2, 37 C, 15 min
T1 sequence: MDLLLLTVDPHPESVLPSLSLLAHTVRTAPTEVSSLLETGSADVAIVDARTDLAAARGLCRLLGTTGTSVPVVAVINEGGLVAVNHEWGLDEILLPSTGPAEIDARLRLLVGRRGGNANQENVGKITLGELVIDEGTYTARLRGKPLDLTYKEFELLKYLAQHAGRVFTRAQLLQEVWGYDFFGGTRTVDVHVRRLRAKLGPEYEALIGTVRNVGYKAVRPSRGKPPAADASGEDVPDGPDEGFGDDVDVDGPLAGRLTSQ

His-GlnR = target: T2, His-GlnR (Mycobacterium smegmatis, UniProt A0R4C4 1-261); assay: EMSA; EMSA: 0.4 ng DIG-labelled DNA, 0-0.9 ug His-GlnR, 0.5 ug poly d(A-T), 25 mM Hepes pH 7.9, 150 mM NaCl, 2.5 mM MgCl2, 37 C, 15 min; conditions: protein: recombinant; tags: N-terminal His6 (pET28b); chain copies: 2; label: DIG 3'-end; blunt
T2 sequence: T1 sequence

Row | Molecule | binding [1] | binding result (His-GlnR)
1 | AACGGTGTGCTTCCTCCGCTGTAGGTGGATCACCGCGTGAAGCGGGTGACCGGTGCAGGGTCGGCGCAACTTACTGCGCTTGGAAAATGCTCGCGCAGGAACGTTTCGGTGGATCCCGTCGGCAATGTCGGTGACGTTAACTCTGCACGGCCCCGCGTTACGTTGTGGTGACCTGACGCAACGGATTTCGTTGTGTGTCCGGTAG (double strand) [peak 22 MSMEG2526 promoter] | binds | 
2 | AAGCCGGATCCAGACGTGTGTTTCCGCGGCATCGGGCGACTGTGTGCTCGATGTTTAGACTTTACTGCTTGGTAACCTACGGAGCCGTAGGTTACGGTAGCGTAGGTAGACGAAAGGAGGGTTGCCAATGGCTGTTACCGACGTCCCGGCGTTCGCGCATCTGACCGAAGCCGATATCGAGAACCTGGGTATCGAGC (double strand) [peak 13 MSMEG1886 promoter] | binds | 
3 | AGCTTGCCTACGAGCTCGAGGAGGCGCGGCCCTGGGCGCGCATACAAGATGTCACCGCGACCAAGCAGCCGCGTAAGCGGGCCGCGAAGAAGGCCACGAAAACCACGGAGTAGGGCACAAACCGGCGTGGCGCGTGACATGACCCCGTAACCCGGGCCGTGTCCTGTTAACGAACTCGACACCGCGAACGGCTGCGGGTGAAACATCGGGCTCGCAGCATCCCTCATT (double strand) [peak 21 MSMEG2522 promoter] | binds | 
4 | GACGCGTCCATTCGGTTGTCCTCCCCGTTGTCGACGGGCCCGAAGCTACCCACGCCATGTTGCGACGACGTTGCGGTTGCGTTCGAACCCGTTGACATCAGCCAGAATTGACGCACGCGTCGGACTACCAGCGGTAGTCGAGGAACTTCCCGTCGAAGGTCACCACCACCCGGTCCCCGTCTGGATCGGGACGACGCTGGATGTCCACCTTGAAGTTGATGGCGCTCATG (double strand) [peak 42 MSMEG5358 promoter] | binds | 
5 | GAGTGTTTGCGGGGCGTTACAGCCGGCGTTGGCTGTGCAACGACCTGTGCTTTGTCGGCGGGAAACATGAGCGTAACAGTGATCGGGATTGCGTTCACTTTCCGGAAACGCAACGGCAGCACCGGCGAAACGCCGGCAACAGAATCTCATCGGGAGGCCGATCCGTCGGCGCACTTCCCAAGGAGGTTCACACAAA (double strand) | binds | 
6 | GCGCTGCTGGTCATGGGTTTTCTCTCTGGCTAGGGGCGCTGCCGCCAGCTCTTACCTGTCAGATGACAGATAACAATGGGCGCGTGTCCTCGGCGTCACCCGAATGTTTCGTTCATGTAGCCGTCGGTAAGCATTCGGTTGCAGAACCCTCACCGCCCGTGGGCCTGTCACAATCGCCGGTATGCCCGCCCCCGACCTCGTGCAGCGCCACATCGACG (double strand) [peak 17 MSMEG2184 promoter] | binds | 
7 | GTACGGGTCGCGCACCTTGTCGGTGAGGATGAGGATCGCATCGACGATGCCCCAGATGAAGGCACCGATGCCACACGTCACCAGGCCCACGATCAGCTGCGCGATGCCGAGCCCGGTCTGCCCCAGATAGATCCGCCCGAACCCGACGAAACCGACCAGGCCGATCAACTGCAACAGGC (double strand) [MSMEG3224 promoter (negative control)] | no binding | 
8 | B1 |  | no binding
9 | B2 |  | no binding
10 | B3 |  | no binding
11 | B4 |  | no binding
